B1: P015004 (antibody, V domains shown)
VH: EVQLLESGGGLVQPGGSLRLSCAASGFTFSDYAMAWVRQAPGKGLEWVSIIYPGDSETIYSPSFEGRFTISRDNSKNTLYLQMNSLRAEDTAVYYCARDTYWEGYFDLWGQGTLVTVSS
VL: EIVLTQSPGTLSLSPGERATLSCRASQGISNYLAWYQQKPGQAPRLLIYDASNLESGIPDRFSGSGSGTDFTLTISRLEPEDFAVYYCQQYANLPYTFGQGTKVEIK
B2: P015018 (antibody, V domains shown)
VH: EVQLLESGGGLVQPDGSMRLICAASGFTFSSYAKHWVRQAPGKGLEWVSEIYTSGSTNYNPSLKSRFTISRDNSKNTLYLQMNSLRAEDTAVYYCARDTWWEGYFDLWGQGTLVTVSS
VL: B1 VL with G28S, I29V, N31T, N53S, Y91S, A92Y, Y96H
B3: P015042 (antibody, V domains shown)
VH: EVQLLESGGGLVQPGGSLRLSCAASGFTFSDYAMSWVRQAPGKGLEWVSVISSDGGSIYYADSVKGRFTISRDNSKNTLYLQMNSLRAEDTAVYYCAKDRSRDMEVDFDYWGQGTLVTVSS
VL: QSVLTQPPSASGTPGQRVTISCSGSSSNIGSNYVTWYQQLPGTAPKLLIYDSSQRPSGVPDRFSGSKSGTSASLAISGLRSEDEADYYCGTWDYSLSGYVFGGGTKLTVL
B4: P015012 (antibody, V domains shown)
VH: EVQLLESGGGLVQPGGSLRLSCAASGFTFSGYSMSWVRQAPGKGLEWVSGISYGGSSISYADSVKGRFTISRDNSKNTLYLQMNSLRAEDTAVYYCAKPVRRWARFRLSYDDAMDVWGQGTLVTVSS
VL: B3 VL with S31N, Y33A, T35N, D51A, S52N, Q54H, Y94S
B5: P015044 (antibody, V domains shown)
VH: EVQLLESGGGLVQPGGSLRLSCAASGFTFSNYAMHWVRQAPGKGLEWVSIIYPDDDTRYNPSFRGRFTISRDNSKNTLYLQMNSLRAEDTAVYYCARDLLYAGDYWGQGTLVTVSS
VL: QSVLTQPPSASGTPGQRVTISCGGNNIESKAVHWYQQLPGTAPKLLIYANNKRPSGVPDRFSGSKSGTSASLAISGLRSEDEADYYCQSYDSNKVVFGGGTKLTVL
B6: P015042v1 (antibody, V domains shown)
VH: B3 VH
VL: B3 VL with S97N
notes: Tested as complete IgG; Parent of the variants P015042v1-1 to P015042v1-6
B7: P015042v1-6 (antibody, V domains shown)
VH: B3 VH with G55K
VL: B3 VL with S52K, S97N, G98A
notes: Variant of P015042v1, tested as IgG

This is an account of results in patent publication US20260028400A1 (AIMED BIO, published 2026).

In general, EC50 (read off the curve) refers to the concentration that produces a half-maximal response. Higher therefore signals weaker potency. The term EC50 denotes the concentration needed to bring the measured effect to its halfway point. A low value points to greater potency. One may read the Kd as the constant that tells how readily two partners part at equilibrium. Broadly, the koff is a measure of how fast the partners let go of each other. Low readings indicate slow dissociation, high ones fast dissociation. Broadly, the kon is the second-order rate constant of association.

Substitutions are numbered along the chain they refer to.

T2 sequence (Q01973 30-305): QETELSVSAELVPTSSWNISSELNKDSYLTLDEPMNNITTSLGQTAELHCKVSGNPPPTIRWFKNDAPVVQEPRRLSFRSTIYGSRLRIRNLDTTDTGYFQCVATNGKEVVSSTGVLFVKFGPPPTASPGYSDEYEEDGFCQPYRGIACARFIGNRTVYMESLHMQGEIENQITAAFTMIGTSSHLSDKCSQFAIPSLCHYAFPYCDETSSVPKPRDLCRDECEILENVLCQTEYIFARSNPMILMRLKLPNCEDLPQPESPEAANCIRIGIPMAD
T3 sequence (Q01973 165-305 limits assumed): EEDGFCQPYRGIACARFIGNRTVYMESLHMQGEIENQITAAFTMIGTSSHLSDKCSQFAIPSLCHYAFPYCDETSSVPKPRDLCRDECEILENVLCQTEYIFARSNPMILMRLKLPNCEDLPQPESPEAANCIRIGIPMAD
T1 sequence (Q01973 39-151 limits assumed): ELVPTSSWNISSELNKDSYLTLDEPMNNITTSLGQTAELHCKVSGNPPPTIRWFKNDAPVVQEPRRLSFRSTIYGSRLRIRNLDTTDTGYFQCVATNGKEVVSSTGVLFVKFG

The first assay concerns the target T1, Ig-like (human, UniProt Q01973).
T1 construct: Ig-like domain, His tag; also called Ig-like domain; human ROR1-immunoglobulin domain
Kind of assay: ELISA, IgG on coated domain, OD450. The procedure:
(§1) ELISA was performed to analyze the binding domain using the IgG antibody of the selected clone.
(§2) After washing with PBST and distilled water, binding at room temperature for 1 hour using a goat-derived HRP-conjugated anti-human antibody (Invitrogen, 31482, Goat anti-Human IgG F(ab′)₂ Secondary Antibody, HRP) and then washing again using PBST and distilled water were performed. After color development by adding TMB substrate solution (Thermo Scientific, 34029, 1-Step™ Ultra TMB-ELISA Substrate Solution), the color reaction was stopped with stop solution (Invitrogen, SS04, ELISA Stop Solution), and the absorbance was measured at OD 450 nm. The anti-ROR1 antibody clone binding to each domain was analyzed through ELISA (FIG. 3).
On the technique in general: In an ELISA, binding on a coated surface is turned into a signal by an enzyme label.
In the case of B1, the binding result was “no binding (tested: 300 nM)”.
With B2, the binding result is on record as “no binding (tested: 300 nM)”.
Take B3: the half-maximal effective concentration (EC50 (read off the curve)) is about 7 nM.
For B4, the binding result was “no binding (tested: 300 nM)”.

The next assay has as its target T2, Ig+FZD (human).
T2 construct: Ig-like plus frizzled domains, His tag; also called IF domain; human ROR1-immunoglobulin-frizzled domain
Kind of assay: ELISA, IgG on coated domain, OD450. On the procedure: as §1, §2
Consider B1, for which the concentration giving a half-maximal response (EC50 (read off the curve)) is about 3 nM.
Still for that read-out and setting: under B2 stands about 10 nM.
As for B3, the 50% effective concentration (EC50 (read off the curve)) was about 0.4 nM.
The same measure, in the same setting: the value for B4 was about 2 nM.

A further assay has as its target T3, FZD (human, UniProt Q01973).
T3 construct: frizzled domain, His tag; also called Frizzled domain; human ROR1-frizzled domain
Kind of assay: ELISA, IgG on coated domain, OD450. On the procedure:
as §1, §2
For the molecule B1, the binding result is reported as “no binding (tested: 300 nM)”.
Same read-out and setting: the value for B2 was “no binding (tested: 300 nM)”.
For B3, the binding result is recorded as “no binding (tested: 300 nM)”.
On to B5, for which the binding result is “no binding (tested: 300 nM)”.

In the next assay the target is T4, FZD+KRD (human, UniProt Q01973).
T4 construct: frizzled plus kringle domains, His tag; also called FK domain; human ROR1-frizzled-kringle domain
T4 sequence (Q01973 165-395 limits assumed): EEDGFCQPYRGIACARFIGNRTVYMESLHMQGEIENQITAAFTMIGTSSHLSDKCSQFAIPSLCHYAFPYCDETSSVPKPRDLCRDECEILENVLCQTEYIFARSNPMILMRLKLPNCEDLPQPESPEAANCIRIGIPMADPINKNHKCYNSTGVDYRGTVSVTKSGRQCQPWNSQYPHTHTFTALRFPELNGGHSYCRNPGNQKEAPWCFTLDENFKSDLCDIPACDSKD
Kind of assay: ELISA, IgG on coated domain, OD450. On the procedure:
as §1, §2
Consider B1, for which the binding result is “no binding (tested: 300 nM)”.
Regarding B2, the binding result was “no binding (tested: 300 nM)”.
Same read-out and setting: the value for B3 was “no binding (tested: 300 nM)”; that for B5 was “no binding (tested: 300 nM)”.

For another assay, the target named is T5, ROR1 expressed on cell surface (Jeko-1 cell line, AMB-LC-0003T and AMB-LC-0002T patient-derived lung cancer … (human, UniProt Q01973 30-937)).
T5 construct: whole, on cells; Endogenous ROR1 on human cells; the cell is named in the assay or readout field of each row; also called ROR1 antigen expressed in AMB-LC-0003T patient-derived lung cancer cells; ROR1 antigen expressed in Jeko-1 cell line
T5 sequence (Q01973 30-937): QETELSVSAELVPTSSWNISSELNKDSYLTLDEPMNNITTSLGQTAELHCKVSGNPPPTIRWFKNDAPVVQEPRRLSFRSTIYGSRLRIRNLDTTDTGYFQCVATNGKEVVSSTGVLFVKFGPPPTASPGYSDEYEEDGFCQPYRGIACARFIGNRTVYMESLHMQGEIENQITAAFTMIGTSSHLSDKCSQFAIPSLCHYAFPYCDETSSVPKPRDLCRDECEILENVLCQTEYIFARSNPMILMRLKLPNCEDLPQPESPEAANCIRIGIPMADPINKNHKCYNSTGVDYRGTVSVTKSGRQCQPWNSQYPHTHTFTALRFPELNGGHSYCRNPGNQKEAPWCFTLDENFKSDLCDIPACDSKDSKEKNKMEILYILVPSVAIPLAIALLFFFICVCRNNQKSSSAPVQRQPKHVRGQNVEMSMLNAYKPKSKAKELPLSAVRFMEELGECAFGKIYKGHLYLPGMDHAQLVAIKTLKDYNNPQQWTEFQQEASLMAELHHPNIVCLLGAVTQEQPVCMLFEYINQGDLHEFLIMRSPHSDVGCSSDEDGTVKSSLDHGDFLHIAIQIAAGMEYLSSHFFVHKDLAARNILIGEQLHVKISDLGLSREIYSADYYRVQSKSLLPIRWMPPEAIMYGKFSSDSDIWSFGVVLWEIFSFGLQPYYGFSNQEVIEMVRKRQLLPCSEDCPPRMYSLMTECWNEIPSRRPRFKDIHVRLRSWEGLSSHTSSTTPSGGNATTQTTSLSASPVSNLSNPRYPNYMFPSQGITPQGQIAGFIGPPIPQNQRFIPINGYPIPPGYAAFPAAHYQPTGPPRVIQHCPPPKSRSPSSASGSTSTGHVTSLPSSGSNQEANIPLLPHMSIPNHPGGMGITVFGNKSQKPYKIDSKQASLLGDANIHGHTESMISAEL
Kind of assay: flow cytometry on AMB-LC-0003T patient-derived lung cancer cells. On the procedure:
(§3) Before therapeutic use of anti-ROR1 antibodies, it is very important to determine whether the antibody binds to the antigen expressed on the cell surface. The cell binding ability of anti-ROR1 antibodies developed by the present inventors was measured using FACS in Jeko-1 cell line and AMB-LC-0003T patient-derived cells, which were confirmed to have high ROR1 expression. Each cell type was dispensed at 1×10⁵ cells/100 μl FACS buffer per well in a 96-well plate.
(§4) Cell binding ability analysis was performed using anti-ROR1 candidate antibodies P015004, P015042, P015043, P015044, P015042v1 with improved biological and physical properties, and P015042v1-6, one of modified materials thereof. Each antibody was serially diluted 10-fold from 100 nM to 10 nM, 1 nM, 100 pM, 10 pM, and 1 pM and the cells were treated therewith. After reaction at 4° C. for 30 minutes, washing was performed twice. PE-labeled goat anti-human IgG Fc PE (ThermoFisher; 12-4998-82) as a secondary antibody was diluted at a ratio of 1:100 in FACS buffer, and 100 μl thereof was dispensed per well. Reaction again at 4° C. for 30 minutes and washing twice were performed. Finally, 100 μl of FACS buffer was dispensed per well, followed by mixing well with a pipette and then flow cytometry using a NovoCyte flow cytometer (Agilent). Analysis was performed using GraphPad Prism 9.3.1, and EC₅₀ values were obtained using a log (agonist) vs. response-Variable slope nonlinear graph model.
(A flow cytometer gives signals particle by particle.)
Turning to B1, the response was half-maximal at 4.6 nM (EC50).
Take B3: the EC50 was 0.15 nM.
Still for that read-out and setting: under B6 stands 0.16 nM.
The molecule B5 came in with an EC50 of 1.78 nM.

Another assay deals with T5, ROR1 expressed on cell surface (Jeko-1 …). Kind of assay: flow cytometry on Jeko-1 cells. The procedure: as §3, §4
With B1, the EC50 worked out at 8.16 nM.
Still for that read-out and setting: the value for B3 was 0.081 nM; that for B7 was 0.011 nM.
In turn, B6 gave a half-maximal effective concentration (EC50) of 0.014 nM.
B5: the EC50 is 0.13 nM.

For another assay, the target named is T6, human ROR1 (human, UniProt Q01973 30-403, limits assumed).
T6 construct: also called human ROR1 protein
T6 sequence (Q01973 30-403 limits assumed): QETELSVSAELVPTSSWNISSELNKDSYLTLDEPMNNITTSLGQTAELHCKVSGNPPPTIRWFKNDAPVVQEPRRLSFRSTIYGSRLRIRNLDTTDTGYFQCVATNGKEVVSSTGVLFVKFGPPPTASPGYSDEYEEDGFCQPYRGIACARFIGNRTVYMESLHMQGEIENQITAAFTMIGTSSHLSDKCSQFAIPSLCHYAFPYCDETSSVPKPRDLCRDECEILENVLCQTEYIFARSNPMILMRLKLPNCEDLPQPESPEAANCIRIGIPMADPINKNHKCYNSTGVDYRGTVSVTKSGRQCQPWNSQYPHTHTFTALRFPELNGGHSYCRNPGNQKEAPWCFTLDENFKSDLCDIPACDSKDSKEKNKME
Briefly: ELISA, IgG on coated human ROR1, OD450. On the procedure: (§5) A 96-well plate was coated at 4° C. for 16 hours with each of human ROR1 and mouse ROR1 proteins at a concentration of 2 μg/ml and then blocked using […]. […] After washing with PBST and distilled water, binding at room temperature for 1 hour using a goat-derived HRP-conjugated anti-human antibody (Invitrogen, 31482, Goat anti-Human IgG F(ab′)₂ Secondary Antibody, HRP) and then washing again using PBST and distilled water were performed. After color development by adding TMB substrate solution (Thermo Scientific, 34029, 1-Step™ Ultra TMB-ELISA Substrate Solution), the color reaction was stopped with stop solution (Invitrogen, SS04, ELISA Stop Solution), and the absorbance was measured at OD 450 nm. It was confirmed that the anti-ROR1 antibody of the present invention and the modified antibody thereof with improved biological and physical properties […] to human ROR1 and mouse ROR1 (FIG. 2).
In the case of B2, the 50% effective concentration (EC50 (read off the curve)) was about 1 nM.
Still for that read-out and setting: under B7 stands about 0.5 nM.

In the next assay the target is T6, human ROR1. Kind of assay: SPR (Biacore 3000), human ROR1 on CM5 chip, IgG injected, 1:1 Langmuir. The procedure: (§6) To more quantitatively analyze the binding ability of the anti-ROR1 antibody to ROR1, SPR (surface plasmon resonance) was performed. A Biacore 3000 device (GE Healthcare) was used. Using the amine coupling method, human ROR1 or mouse ROR1 was diluted with 10 mM sodium acetate, pH 4.5 and immobilized on a CM5 sensor chip (GE Healthcare) at 300 response units (RU). The activated portion remaining on the surface of the sensor chip was deactivated by adding 1 M ethanolamine-HCl (pH 8.5).
In general terms: SPR reads the build-up and loss of mass on a sensor chip optically.
Consider B1, for which the Kd amounted to 0.325 nM, the koff turned out to be 0.00343 s⁻¹ and the kon turned out to be 1.06e+07 M⁻¹ s⁻¹.
The like results for B2 were, in that order, 0.845 nM, 0.00249 s⁻¹ and 2.95e+06 M⁻¹ s⁻¹.
The like results for B3 were, in that order, 0.17 nM, 0.000239 s⁻¹ and 1.41e+06 M⁻¹ s⁻¹.
For B4 the same measures were 0.0789 nM, 0.000321 s⁻¹ and 4.07e+06 M⁻¹ s⁻¹.
On to B7, for which the affinity, expressed as Kd, was 0.0912 nM; the off-rate constant (koff) amounted to 0.000157 s⁻¹; the kon is 1.72e+06 M⁻¹ s⁻¹.
For B6 the same measures were 0.172 nM, 0.000278 s⁻¹ and 1.62e+06 M⁻¹ s⁻¹.
For B5 the same measures were 3.08 nM, 0.00382 s⁻¹ and 1.24e+06 M⁻¹ s⁻¹.

In another assay the target is T7, mouse ROR1 (mouse, UniProt Q9Z139 30-403, limits assumed).
T7 construct: also called mouse ROR1 protein
T7 sequence (Q9Z139 30-403 limits assumed): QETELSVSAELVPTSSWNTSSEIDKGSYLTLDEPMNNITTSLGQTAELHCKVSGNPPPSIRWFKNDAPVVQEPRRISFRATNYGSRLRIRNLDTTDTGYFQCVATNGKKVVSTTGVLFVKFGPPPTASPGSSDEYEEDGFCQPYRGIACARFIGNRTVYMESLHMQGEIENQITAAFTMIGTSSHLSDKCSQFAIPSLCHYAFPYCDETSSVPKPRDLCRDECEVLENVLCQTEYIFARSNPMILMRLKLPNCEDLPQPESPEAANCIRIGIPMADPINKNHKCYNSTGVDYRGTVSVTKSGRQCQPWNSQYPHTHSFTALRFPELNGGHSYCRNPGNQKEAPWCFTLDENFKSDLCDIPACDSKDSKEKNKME
Briefly: ELISA, IgG on coated mouse ROR1, OD450. The procedure:
as §5
B7: the 50% effective concentration (EC50 (read off the curve)) was about 1 nM.

The target in another assay is T7, mouse ROR1. Briefly: SPR (Biacore 3000), mouse ROR1 on CM5 chip, IgG injected, 1:1 Langmuir. On the procedure:
as §6
For B1, binding was put at a Kd of 0.328 nM, the koff was 0.00269 s⁻¹ and the on-rate (kon) is 8.18e+06 M⁻¹ s⁻¹.
As to B2, binding was characterised by a dissociation constant (Kd) of 83.2 nM, the koff was determined as 0.0782 s⁻¹ and the association rate constant (kon) came to 940000 M⁻¹ s⁻¹.
The like results for B3 were, in that order, 0.102 nM, 0.000176 s⁻¹ and 1.72e+06 M⁻¹ s⁻¹.
The like results for B4 were, in that order, 0.285 nM, 0.000356 s⁻¹ and 1.25e+06 M⁻¹ s⁻¹.
In the case of B7, the Kd was determined as 0.802 nM, the koff was determined as 0.0015 s⁻¹ and the on-rate (kon) came out at 1.87e+06 M⁻¹ s⁻¹.
The like results for B6 were, in that order, 0.175 nM, 0.00034 s⁻¹ and 1.94e+06 M⁻¹ s⁻¹.
For B5 the same measures were 1.21 nM, 0.00202 s⁻¹ and 1.67e+06 M⁻¹ s⁻¹.
